± gives the standard deviation of the averaged measurements or the uncertainty stated by the source.
Columns and labels:
[1] = duplex formation free energy ΔG50 (Van't Hoff fit of HRM Tm); higher = less stable duplex; details: temperature for dG: 50 °C, NaCl: 500 mM (unadjusted)
Experimental: (§1)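 Duplex of the listed DNA strand with its complement, in 1x NNE buffer (500 mM NaCl, pH 7.0) with 1x EvaGreen. ΔH and ΔS come from a Van't Hoff linear fit of 1/Tm against ln(CT/4) over 1-20 uM, using HRM Tm values.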

[2] = duplex formation entropy ΔS (Van't Hoff fit of HRM Tm); higher = smaller entropy loss on duplex formation; details: temperature for dG: 50 °C, NaCl: 500 mM (unadjusted)
Experimental: as §1

[3] = duplex melting temperature (HRM, EvaGreen); higher = more stable duplex
Experimental: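 Listed DNA strand annealed 1:1 with its complementary strand (95 °C 5 min, 0.1 °C/s to 20 °C). Melted in 1x NNE buffer (500 mM NaCl, 10 mM Na2HPO4, 1 mM EDTA, pH 7.0) with 1x EvaGreen on a LightCycler96 (37 to 97 °C, 0.1 °C/s). Tm is the peak of -dF/dT at the stated total duplex concentration; 4 replicates are averaged. PS oligos are non-stereospecific (Rp/Sp mixtures).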

[4] = duplex formation enthalpy ΔH (Van't Hoff fit of HRM Tm); higher = less exothermic duplex formation; details: temperature for dG: 50 °C, NaCl: 500 mM (unadjusted)
Experimental: as §1

[5] = backbone: PO-PO (both strands phosphodiester DNA)
[6] = backbone: PS-PO (listed strand fully phosphorothioate, complement phosphodiester)
[7] = backbone: PS-PS (both strands fully phosphorothioate)
[8] = duplex concentration 1 µM, backbone: PS-PO (listed strand fully phosphorothioate, complement phosphodiester)
[9] = duplex concentration 1 µM, backbone: PS-PS (both strands fully phosphorothioate)
[10] = duplex concentration 2.5 µM, backbone: PO-PO (both strands phosphodiester DNA)
[11] = duplex concentration 2.5 µM, backbone: PS-PO (listed strand fully phosphorothioate, complement phosphodiester)
[12] = duplex concentration 2.5 µM, backbone: PS-PS (both strands fully phosphorothioate)
[13] = duplex concentration 5 µM, backbone: PO-PO (both strands phosphodiester DNA)
[14] = duplex concentration 5 µM, backbone: PS-PO (listed strand fully phosphorothioate, complement phosphodiester)
[15] = duplex concentration 5 µM, backbone: PS-PS (both strands fully phosphorothioate)
[16] = duplex concentration 7.5 µM, backbone: PO-PO (both strands phosphodiester DNA)
[17] = duplex concentration 7.5 µM, backbone: PS-PO (listed strand fully phosphorothioate, complement phosphodiester)
[18] = duplex concentration 7.5 µM, backbone: PS-PS (both strands fully phosphorothioate)
[19] = duplex concentration 10 µM, backbone: PO-PO (both strands phosphodiester DNA)
[20] = duplex concentration 10 µM, backbone: PS-PO (listed strand fully phosphorothioate, complement phosphodiester)
[21] = duplex concentration 10 µM, backbone: PS-PS (both strands fully phosphorothioate)
[22] = duplex concentration 15 µM, backbone: PO-PO (both strands phosphodiester DNA)
[23] = duplex concentration 15 µM, backbone: PS-PO (listed strand fully phosphorothioate, complement phosphodiester)
[24] = duplex concentration 15 µM, backbone: PS-PS (both strands fully phosphorothioate)
[25] = duplex concentration 20 µM, backbone: PO-PO (both strands phosphodiester DNA)
[26] = duplex concentration 20 µM, backbone: PS-PO (listed strand fully phosphorothioate, complement phosphodiester)
[27] = duplex concentration 20 µM, backbone: PS-PS (both strands fully phosphorothioate)
[28] = duplex concentration 1 µM, backbone: PO-PO (both strands phosphodiester DNA)

Sequence | duplex formation free energy ΔG50 [1, 5] | duplex formation free energy ΔG50 [1, 6] | duplex formation free energy ΔG50 [1, 7] | duplex formation entropy ΔS [2, 5] | duplex formation entropy ΔS [2, 6] | duplex formation entropy ΔS [2, 7] | duplex melting temperature [3, 8] | duplex melting temperature [3, 9] | duplex melting temperature [3, 10] | duplex melting temperature [3, 11] | duplex melting temperature [3, 12] | duplex melting temperature [3, 13] | duplex melting temperature [3, 14] | duplex melting temperature [3, 15] | duplex melting temperature [3, 16] | duplex melting temperature [3, 17] | duplex melting temperature [3, 18] | duplex melting temperature [3, 19] | duplex melting temperature [3, 20] | duplex melting temperature [3, 21] | duplex melting temperature [3, 22] | duplex melting temperature [3, 23] | duplex melting temperature [3, 24] | duplex melting temperature [3, 25] | duplex melting temperature [3, 26] | duplex melting temperature [3, 27] | duplex formation enthalpy ΔH [4, 5] | duplex formation enthalpy ΔH [4, 6] | duplex formation enthalpy ΔH [4, 7] | duplex melting temperature [3, 28]
CCCAGGCCTCGGATTTA | -14.1 ± 0.15 kcal/mol | -12.37 ± 0.061 kcal/mol | -11.41 ± 0.078 kcal/mol | -206 ± 6.1 cal/mol/K | -191 ± 3.5 cal/mol/K | -205 ± 6.3 cal/mol/K | 61.72 ± 0.53 °C | 56.81 ± 0.12 °C | 71.02 ± 0.086 °C | 64.52 ± 0.19 °C | 59.77 ± 0.087 °C | 73.09 ± 0.13 °C | 66.7 ± 0.3 °C | 61.69 ± 0.093 °C | 74.25 ± 0.19 °C | 67.99 ± 0.22 °C | 62.78 ± 0.14 °C | 75.215 ± 0.05 °C | 68.759 ± 0.049 °C | 63.54 ± 0.15 °C | 76.343 ± 0.055 °C | 70.047 ± 0.069 °C | 64.73 ± 0.092 °C | 77.12 ± 0.096 °C | 71.04 ± 0.25 °C | 65.39 ± 0.35 °C | -80.8 ± 2.1 kcal/mol | -74.2 ± 1.2 kcal/mol | -77.5 ± 2.1 kcal/mol | –
CCGCTCAGAGTAGAGA | -12.5 ± 0.059 kcal/mol | -11.31 ± 0.042 kcal/mol | -9.673 ± 0.048 kcal/mol | -187 ± 3.2 cal/mol/K | -193 ± 3.2 cal/mol/K | -183 ± 8 cal/mol/K | 56.777 ± 0.05 °C | 49.2 ± 0.5 °C | 65.47 ± 0.19 °C | 59.67 ± 0.14 °C | 52.58 ± 0.28 °C | 67.54 ± 0.15 °C | 61.84 ± 0.13 °C | 54.81 ± 0.14 °C | 68.92 ± 0.084 °C | 63.04 ± 0.11 °C | 55.91 ± 0.17 °C | 69.87 ± 0.13 °C | 63.88 ± 0.14 °C | 56.68 ± 0.077 °C | 71.25 ± 0.081 °C | 65.05 ± 0.1 °C | 57.72 ± 0.067 °C | 72.15 ± 0.098 °C | 65.94 ± 0.14 °C | 58.67 ± 0.3 °C | -72.8 ± 1.1 kcal/mol | -73.5 ± 1.1 kcal/mol | -68.9 ± 2.6 kcal/mol | 62.75 ± 0.41 °C
CCGTTGCTGCTAGG | -12.3 ± 0.25 kcal/mol | -11.1 ± 0.33 kcal/mol | -9.23 ± 0.051 kcal/mol | -172 ± 13 cal/mol/K | -180 ± 23 cal/mol/K | -97.4 ± 7.7 cal/mol/K | – | 45.8 ± 0.71 °C | 65.75 ± 0.21 °C | 59.6 °C | 49.3 ± 1.4 °C | 68 ± 0.31 °C | 61.1 ± 1 °C | 53.433 ± 0.0017 °C | 69.13 ± 0.18 °C | 63.1 ± 0.69 °C | 56 °C | 70.55 ± 0.22 °C | 63.92 ± 0.4 °C | 57.4 °C | 71.88 ± 0.22 °C | 65.35 ± 0.083 °C | 60.5 °C | 72.82 ± 0.098 °C | 65.77 ± 0.2 °C | 61.75 ± 0.28 °C | -67.8 ± 4.5 kcal/mol | -69.4 ± 7.8 kcal/mol | -40.7 ± 2.5 kcal/mol | –
CGACATGTATGGCACAG | -13.17 ± 0.12 kcal/mol | -11.9 ± 0.052 kcal/mol | -9.881 ± 0.049 kcal/mol | -198 ± 5.8 cal/mol/K | -224 ± 3.8 cal/mol/K | -214 ± 8.2 cal/mol/K | 58.38 ± 0.3 °C | 50.2 ± 0.26 °C | 67.76 ± 0.17 °C | 60.82 ± 0.11 °C | 53.07 ± 0.18 °C | 69.89 ± 0.28 °C | 62.71 ± 0.088 °C | 55.02 ± 0.11 °C | 70.97 ± 0.12 °C | 63.78 ± 0.073 °C | 56.02 ± 0.081 °C | 71.86 ± 0.14 °C | 64.547 ± 0.024 °C | 56.75 ± 0.13 °C | 73.04 ± 0.17 °C | 65.56 ± 0.091 °C | 57.63 ± 0.092 °C | 73.85 ± 0.16 °C | 66.343 ± 0.048 °C | 58.35 ± 0.083 °C | -77.2 ± 2 kcal/mol | -84.2 ± 1.3 kcal/mol | -79.1 ± 2.7 kcal/mol | 64.55 ± 0.5 °C
CGATTTTGTCAAGCCT | – | -10.45 ± 0.08 kcal/mol | -8.766 ± 0.018 kcal/mol | – | -197 ± 8.1 cal/mol/K | -179 ± 5.5 cal/mol/K | 52.6 °C | 45 ± 0.64 °C | 64.84 ± 0.3 °C | 55.56 ± 0.073 °C | 48.27 ± 0.26 °C | 66.53 ± 0.27 °C | 57.82 ± 0.17 °C | 50.1 ± 0.15 °C | 67.75 ± 0.37 °C | 58.86 ± 0.14 °C | 51.53 ± 0.24 °C | 68.64 ± 0.33 °C | 59.74 ± 0.12 °C | 52.43 ± 0.088 °C | 70.02 ± 0.072 °C | 60.94 ± 0.033 °C | 53.55 ± 0.096 °C | 70.68 ± 0.17 °C | 61.81 ± 0.11 °C | 54.55 ± 0.15 °C | – | -74 ± 2.7 kcal/mol | -66.5 ± 1.8 kcal/mol | 64.1 °C
CGCGCGAGTATTTATAACCT | -18.2 ± 0.69 kcal/mol | -13.7 ± 0.2 kcal/mol | -10.5 ± 0.12 kcal/mol | -372 ± 29 cal/mol/K | -290 ± 12 cal/mol/K | -234 ± 19 cal/mol/K | – | 52.47 ± 0.24 °C | 72.26 ± 0.47 °C | 64.1 ± 0.75 °C | 55.09 ± 0.4 °C | 73.44 ± 0.43 °C | 65.57 ± 0.61 °C | 56.95 ± 0.38 °C | 74.53 ± 0.18 °C | 66.38 ± 0.52 °C | 57.68 ± 0.13 °C | 75.09 ± 0.087 °C | 67.07 ± 0.32 °C | 58.33 ± 0.069 °C | 75.71 ± 0.17 °C | 67.9 ± 0.21 °C | – | – | 68.39 ± 0.14 °C | – | -138 ± 10 kcal/mol | -107 ± 4 kcal/mol | -86 ± 6.3 kcal/mol | 71.21 ± 0.27 °C
CGGGATTTCTGGCATCATTGTCCT | -19 ± 0.58 kcal/mol | -17.1 ± 0.38 kcal/mol | -13 ± 0.16 kcal/mol | -332 ± 20 cal/mol/K | -384 ± 18 cal/mol/K | -294 ± 11 cal/mol/K | 67.9 ± 0.64 °C | 59.9 ± 0.76 °C | 77.25 ± 0.45 °C | 69.22 ± 0.5 °C | 61.87 ± 0.59 °C | 78.194 ± 0.017 °C | 70.21 ± 0.48 °C | 63.36 ± 0.43 °C | 79.16 ± 0.14 °C | 70.82 ± 0.46 °C | 64.38 ± 0.25 °C | 79.99 ± 0.12 °C | 71.58 ± 0.27 °C | 65.03 ± 0.12 °C | 80.96 ± 0.077 °C | 72.42 ± 0.15 °C | 65.67 ± 0.24 °C | 81.6 ± 0.082 °C | 72.86 ± 0.12 °C | 66.1 ± 0.11 °C | -126 ± 7 kcal/mol | -141 ± 6.2 kcal/mol | -108 ± 3.9 kcal/mol | 76 ± 0.48 °C
CGGTGCTTTTGGTAGC | -13 ± 0.28 kcal/mol | -11.01 ± 0.054 kcal/mol | -9.497 ± 0.038 kcal/mol | -204 ± 15 cal/mol/K | -200 ± 4.7 cal/mol/K | -184 ± 7.3 cal/mol/K | 55.5 °C | 48.49 ± 0.47 °C | 66.24 ± 0.63 °C | 57.98 ± 0.26 °C | 51.59 ± 0.36 °C | 68.2 ± 0.57 °C | 60.12 ± 0.16 °C | 53.89 ± 0.15 °C | 69.42 ± 0.55 °C | 61.35 ± 0.16 °C | 55.11 ± 0.14 °C | 70.49 ± 0.27 °C | 62.11 ± 0.17 °C | 55.86 ± 0.081 °C | 71.77 ± 0.14 °C | 63.256 ± 0.027 °C | 56.93 ± 0.08 °C | 72.89 ± 0.21 °C | 64.025 ± 0.015 °C | 57.7 ± 0.2 °C | -78.9 ± 5 kcal/mol | -75.7 ± 1.6 kcal/mol | -69.1 ± 2.4 kcal/mol | 64.53 ± 0.35 °C
CGTGCAGCACTACTTG | -12.8 ± 0.17 kcal/mol | -11.31 ± 0.067 kcal/mol | -9.892 ± 0.075 kcal/mol | -181 ± 7.5 cal/mol/K | -186 ± 5 cal/mol/K | -179 ± 11 cal/mol/K | 56.81 ± 0.29 °C | 50.09 ± 0.18 °C | 67.58 ± 0.38 °C | 60.02 ± 0.13 °C | 53.82 ± 0.069 °C | 69.83 ± 0.28 °C | 62.35 ± 0.23 °C | 56.17 ± 0.085 °C | 71.17 ± 0.15 °C | 63.49 ± 0.13 °C | 57.1 ± 0.12 °C | 72.2 ± 0.18 °C | 64.33 ± 0.093 °C | 57.92 ± 0.08 °C | 73.4 ± 0.13 °C | 65.6 ± 0.099 °C | 59.07 ± 0.11 °C | 74.39 ± 0.17 °C | 66.47 ± 0.25 °C | 59.74 ± 0.13 °C | -71.3 ± 2.6 kcal/mol | -71.3 ± 1.7 kcal/mol | -67.6 ± 3.5 kcal/mol | –
